Kd data for 1 substance are collected here from article PMC6154215.

Holding throughout (assay): fluorescence polarisation
(In general: Fluorescence polarisation rises when a labelled molecule tumbles more slowly, as on binding a larger partner.)

Assay [1] addresses bivalent ExoS L423A peptide, fluorescently labeled (Pseudomonas aeruginosa) (UniProt Q51451).
In assay [2] the target is bivalent wild-type ExoS peptide, fluorescently labeled (Pseudomonas aeruginosa).
The target of assay [3] is monovalent ExoS L423A peptide, fluorescently labeled (Pseudomonas aeruginosa) (UniProt Q51451).

As to “tobacco 14-3-3 homodimer T14-3-3cΔC (domain or fragment)”, the values for the Kd in assay [1], in assay [2] and in assay [3] were 5.9 µM, 0.0455 µM and 127 µM, respectively.
